Laboratory results reported in publication doi:10.1101/2021.04.08.439061.
No end group written: not given here. *: point of attachment. 5FAM = O=C1OC2(c3ccc(O)cc3Oc3cc(O)ccc32)c2ccc(C(=O)*)cc21

Target: HLA-A*03:01 (recombinant soluble heavy chain with β2-microglobulin) (human)
Assay: fluorescence polarisation

B1: pWT peptide fluorescently labeled at P5 (5-carboxyfluorescein-modified lysine in place of P5 Gly) (peptide)
peptide: AHHGK(5FAM)WTTK
- t1/2 of dissociation: 4.68 min
